Data as given in the supplement of paper PMC6757056.
± gives the standard deviation of the averaged measurements.

B1: library; a variant is named by its letters at N, in order (parent)
chain: GCUGUCACCGAGAAACUGUGAAGUAUAUCUUAAACCUGGGCACUUAAAAGAUAUAUGGAGUUAGUAGUGCAACCUGCUCGGUCUGAUGAGUCCNNNNNNGGACGAAACAGC

Legend:
cyclic di-GMP [1] = variants of: B1; assay: FACS-Seq fitted mean relative fluorescence mCherry/BFP without ligand (log10 relative fluorescence); HEK293T; ligand: cyclic di-GMP (c-di-GMP-II aptamer); higher = higher reporter protein expression; conditions: ligand present: no
How it was run: (§1)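 An mCherry reporter containing the ribozyme switch and an EF1α-BFP marker were introduced by lentivirus into HEK293T libraries. Cells were enriched, incubated 48 h with or without ligand, sorted into 6 bins by mCherry/BFP, and bin genomic DNA was PCR-amplified, barcoded and sequenced on MiSeq. Fluorescence represents the normalized fitted normal mean of the bin counts. Fitting was done on log10(mCherry/BFP), scaling to five spiked-in control ribozymes.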

cyclic di-GMP [2] = variants of: B1; assay: normalized RNA/DNA level without ligand (relative to sTRSVctl = 100) (log10 (% of sTRSVctl)); HEK293T; ligand: cyclic di-GMP (c-di-GMP-II aptamer); higher = less ribozyme self-cleavage, higher mRNA level; conditions: reporter: mCherry (pCS4076), ligand present: no
How it was run: (§2)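 Only sequences with at least 100 DNA reads were analyzed, from HEK293T cells transfected with 4 µg per 6-well well of ribozyme switch library plasmids 72 h before RNA extraction with EDTA. Any ligand was added 1 h before transfection. RNA level was defined as RNA over DNA reads, normalized to a spiked-in non-cleaving sequence or to the top sequences, then scaled and log-transformed. The top set was 25 sequences, and the scaling was ×100 followed by log10.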

cyclic di-GMP [3] = variants of: B1; assay: FACS-Seq fitted mean relative fluorescence mCherry/BFP with ligand (log10 relative fluorescence); HEK293T; ligand: cyclic di-GMP (c-di-GMP-II aptamer); ligand concentration (+) FACS-Seq: 1 mM; higher = higher reporter protein expression; conditions: ligand present: yes
How it was run: as §1

cyclic di-GMP [4] = variants of: B1; assay: normalized RNA/DNA level with ligand (relative to sTRSVctl = 100) (log10 (% of sTRSVctl)); HEK293T; ligand: cyclic di-GMP (c-di-GMP-II aptamer); ligand concentration (+) RNA-Seq: 1 mM; higher = less ribozyme self-cleavage, higher mRNA level; conditions: reporter: mCherry (pCS4076), ligand present: yes
How it was run: as §2

Row | Variant | FACS-Seq fitted mean (log10) (cyclic di-GMP [1]) | normalized RNA/DNA level without ligand (log10) (cyclic di-GMP [2]) | FACS-Seq fitted mean (log10) (cyclic di-GMP [3]) | normalized RNA/DNA level with ligand (log10) (cyclic di-GMP [4])
1 | GCUGUCACCGAGAAACUGUGAAGUAUAUCUUAAACCUGGGCACUUAAAAGAUAUAUGGAGUUAGUAGUGCAACCUGCUCGGUCUGAUGAGUCCAGGUAAGGACGAAACAGC [AGGUAA] | -0.299 ± 0.023 | 1.43 ± 0.034 | -0.0992 ± 0.054 | 1.56 ± 0.17
2 | GCUGUCACCGAGAAACUGUGAAGUAUAUCUUAAACCUGGGCACUUAAAAGAUAUAUGGAGUUAGUAGUGCAACCUGCUCGGUCUGAUGAGUCCAGGUAUGGACGAAACAGC [AGGUAU] | -0.276 ± 0.0093 | 1.57 ± 0.046 | 0.0998 ± 0.21 | 1.76 ± 0.066
3 | GCUGUCACCGAGAAACUGUGAAGUAUAUCUUAAACCUGGGCACUUAAAAGAUAUAUGGAGUUAGUAGUGCAACCUGCUCGGUCUGAUGAGUCCAGGUCAGGACGAAACAGC [AGGUCA] | -0.483 ± 0.071 | 1.649 ± 0.0037 | -0.219 ± 0.037 | 1.77 ± 0.14
4 | GCUGUCACCGAGAAACUGUGAAGUAUAUCUUAAACCUGGGCACUUAAAAGAUAUAUGGAGUUAGUAGUGCAACCUGCUCGGUCUGAUGAGUCCCGGUGAGGACGAAACAGC [CGGUGA] | -0.266 ± 0.011 | 1.4 ± 0.13 | 0.0909 ± 0.043 | 1.64 ± 0.12
5 | GCUGUCACCGAGAAACUGUGAAGUAUAUCUUAAACCUGGGCACUUAAAAGAUAUAUGGAGUUAGUAGUGCAACCUGCUCGGUCUGAUGAGUCCUGGUCGGGACGAAACAGC [UGGUCG] | -0.511 ± 0.12 | 1.77 ± 0.034 | -0.326 ± 0.0047 | 1.89 ± 0.045
6 | GCUGUCACCGAGAAACUGUGAAGUAUAUCUUAAACCUGGGCACUUAAAAGAUAUAUGGAGUUAGUAGUGCAACCUGCUCGGUCUGAUGAGUCCUGGUGAGGACGAAACAGC [UGGUGA] | -0.506 ± 0.1 | 1.57 ± 0.12 | -0.257 ± 0.04 | 1.75 ± 0.1
7 | GCUGUCACCGAGAAACUGUGAAGUAUAUCUUAAACCUGGGCACUUAAAAGAUAUAUGGAGUUAGUAGUGCAACCUGCUCGGUCUGAUGAGUCCCGGUCAGGACGAAACAGC [CGGUCA] | -0.42 ± 0.019 | 1.45 ± 0.045 | -0.182 ± 0.032 | 1.59 ± 0.18
8 | GCUGUCACCGAGAAACUGUGAAGUAUAUCUUAAACCUGGGCACUUAAAAGAUAUAUGGAGUUAGUAGUGCAACCUGCUCGGUCUGAUGAGUCCCGGUCCGGACGAAACAGC [CGGUCC] | -0.137 ± 0.077 | 1.8527 ± 0.0016 | 0.251 ± 0.017 | 1.96 ± 0.069
9 | GCUGUCACCGAGAAACUGUGAAGUAUAUCUUAAACCUGGGCACUUAAAAGAUAUAUGGAGUUAGUAGUGCAACCUGCUCGGUCUGAUGAGUCCCGGGUCGGACGAAACAGC [CGGGUC] | -0.589 ± 0.12 | 1.81 ± 0.032 | -0.527 ± 0.034 | 1.9 ± 0.057
10 | GCUGUCACCGAGAAACUGUGAAGUAUAUCUUAAACCUGGGCACUUAAAAGAUAUAUGGAGUUAGUAGUGCAACCUGCUCGGUCUGAUGAGUCCCGGGUGGGACGAAACAGC [CGGGUG] | -0.608 ± 0.14 | 1.62 ± 0.026 | -0.7531 ± 0.0033 | 1.82 ± 0.12
11 | GCUGUCACCGAGAAACUGUGAAGUAUAUCUUAAACCUGGGCACUUAAAAGAUAUAUGGAGUUAGUAGUGCAACCUGCUCGGUCUGAUGAGUCCCGGUAAGGACGAAACAGC [CGGUAA] | -0.662 ± 0.021 | 1.19 ± 0.052 | -0.41 ± 0.069 | 1.28 ± 0.087
12 | GCUGUCACCGAGAAACUGUGAAGUAUAUCUUAAACCUGGGCACUUAAAAGAUAUAUGGAGUUAGUAGUGCAACCUGCUCGGUCUGAUGAGUCCCGGUAUGGACGAAACAGC [CGGUAU] | -0.696 ± 0.0075 | 1.35 ± 0.14 | -0.413 ± 0.0071 | 1.51 ± 0.14
13 | GCUGUCACCGAGAAACUGUGAAGUAUAUCUUAAACCUGGGCACUUAAAAGAUAUAUGGAGUUAGUAGUGCAACCUGCUCGGUCUGAUGAGUCCCGGUACGGACGAAACAGC [CGGUAC] | -0.413 ± 0.026 | 1.53 ± 0.13 | -0.0971 ± 0.017 | 1.72 ± 0.086
